According to paper PMC7684302, “A novel Schmallenberg virus subunit vaccine candidate protects IFNAR^-/- mice against virulent SBV challenge” (Scientific Reports, 2020):

Biological target: the molecule itself
Assay: SEC; HiLoad 16/60 Superdex 200 pg column in 1X PBS, after Ni-NTA

B1: Schmallenberg virus nucleoprotein (natural protein)
chain: MSSQFIFEDVPQRNAATFNPEVGYVAFIGKYGQQLNFGVARVFFLNQKKAKMVLHKTAQPSVDLTFGGVKFTVVNNHFPQYVSNPVPDNAITLHRMSGYLARWIADTCKASVLKLAEASAQIVMPLAEVKGCTWADGYTMYLGFAPGAEMFLDAFDFYPLVIEMHRVLKDNMDVNFMKKVLRQRYGTMTAEEWMTQKITEIKAAFNSVGQLAWAKSGFSPAARTFLQQFGINI
notes: Nucleoprotein (N) of Schmallenberg virus, encoded on the S segment; cDNA ligated through AgeI/XhoI into pET-28M-SUMO3 in place of GFP; also called SBV-N; SBV N; source: E. coli BL21, purified (Ni-NTA, SEC)
  binding result: binds
